Read-outs that look alike come from different tables or passages of the source.
T1: human TPBG (full length, on cells) (human, UniProt Q13641 32-420)
T1 sequence (looked up): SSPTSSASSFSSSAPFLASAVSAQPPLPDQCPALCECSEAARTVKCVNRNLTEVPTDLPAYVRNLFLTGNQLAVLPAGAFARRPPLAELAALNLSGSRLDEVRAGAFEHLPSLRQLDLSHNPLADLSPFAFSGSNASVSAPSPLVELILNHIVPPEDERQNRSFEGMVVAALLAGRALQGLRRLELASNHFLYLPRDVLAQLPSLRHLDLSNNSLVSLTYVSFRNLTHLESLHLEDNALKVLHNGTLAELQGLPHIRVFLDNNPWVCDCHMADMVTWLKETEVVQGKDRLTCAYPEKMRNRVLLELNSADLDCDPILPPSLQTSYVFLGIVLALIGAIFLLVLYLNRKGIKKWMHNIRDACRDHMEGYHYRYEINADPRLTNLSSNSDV

T2: mouse TPBG (full length, on cells) (mouse, UniProt Q9Z0L0 32-426)
T2 construct: whole, on cells; On transfected CHO-K1 cells; also called mTPBG; CHO-K1-mTPBG
T2 sequence (looked up): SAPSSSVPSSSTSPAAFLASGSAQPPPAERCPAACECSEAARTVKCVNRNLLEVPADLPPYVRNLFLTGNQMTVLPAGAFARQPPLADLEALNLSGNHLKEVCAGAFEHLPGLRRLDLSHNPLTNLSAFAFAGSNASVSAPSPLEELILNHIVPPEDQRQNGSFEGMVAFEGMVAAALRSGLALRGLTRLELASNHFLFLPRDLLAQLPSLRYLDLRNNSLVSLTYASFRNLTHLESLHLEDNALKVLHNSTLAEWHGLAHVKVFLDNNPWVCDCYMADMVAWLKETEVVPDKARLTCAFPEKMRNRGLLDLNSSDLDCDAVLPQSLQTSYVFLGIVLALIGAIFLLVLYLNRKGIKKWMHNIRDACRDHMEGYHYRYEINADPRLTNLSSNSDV

T3: human TPBG-hFc (human, UniProt Q13641 32-355)
T3 construct: also called immunogen A; hFc tagged TPBG protein; not shown: The human IgG Fc fragment of the pCpC vector (Invitrogen V044-50) and any linker to it
T3 sequence: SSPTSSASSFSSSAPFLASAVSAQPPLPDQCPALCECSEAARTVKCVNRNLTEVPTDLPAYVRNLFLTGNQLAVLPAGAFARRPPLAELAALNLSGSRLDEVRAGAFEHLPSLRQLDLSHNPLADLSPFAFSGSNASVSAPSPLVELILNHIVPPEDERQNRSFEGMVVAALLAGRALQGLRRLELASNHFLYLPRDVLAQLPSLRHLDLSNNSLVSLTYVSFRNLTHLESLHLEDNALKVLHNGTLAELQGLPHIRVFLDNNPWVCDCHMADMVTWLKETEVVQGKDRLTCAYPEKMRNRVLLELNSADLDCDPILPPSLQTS


Experiments:
[1] = biological target: T1, human TPBG (full length, on cells); test: FACS, HEK293 cell strain 5E5E9 transfected with human TPBG
[2] = biological target: T2, mouse TPBG (full length, on cells); test: FACS on CHO-k1-mTPBG 3A3 cells
[3] = biological target: T1, human TPBG (full length, on cells); test: FACS, HEK293 clone 293F-hTPBG 4C3
[4] = biological target: T1, human TPBG (full length, on cells); test: FACS, HEK293 clone 293F-hTPBG 4C5
[5] = biological target: T1, human TPBG (full length, on cells); test: FACS, HEK293 clone 293F-hTPBG 4E1
[6] = biological target: T1, human TPBG (full length, on cells); test: FACS, HEK293 clone 293F-hTPBG 4G1
[7] = biological target: T1, human TPBG (full length, on cells); test: FACS, HEK293 clone 293F-hTPBG 5G11
[8] = biological target: T1, human TPBG (full length, on cells); test: FACS, HEK293 clone 293F-hTPBG 5E6
[9] = biological target: T1, human TPBG (full length, on cells); test: FACS, HEK293 clone 293F-hTPBG 5D4
[10] = biological target: T1, human TPBG (full length, on cells); test: FACS, HEK293 clone 293F-hTPBG 4B9
[11] = biological target: T1, human TPBG (full length, on cells); test: FACS, HEK293 clone 293F-hTPBG 5G8
[12] = biological target: T1, human TPBG (full length, on cells); test: FACS on CHO-k1-hTPBG 3A2F1 cells
[13] = biological target: T1, human TPBG (full length, on cells); test: FACS, HEK293 clone 293F-hTPBG 5E5
[14] = biological target: T1, human TPBG (full length, on cells); test: FACS, HEK293 clone 293F-hTPBG 5A11
[15] = biological target: cynomolgus monkey TPBG (full length, on cells) (cynomolgus monkey) (UniProt Q4R8Y9); test: FACS on CHO-k1-cTPBG 3F13G4 cells
[16] = biological target: T1, human TPBG (full length, on cells); test: FACS, HEK293 clone 293F-hTPBG 4A8
[17] = biological target: T1, human TPBG (full length, on cells); test: FACS, HEK293 clone 293F-hTPBG 4E1 (NO. 8)
[18] = biological target: T1, human TPBG (full length, on cells); test: FACS, HEK293 clone 293F-hTPBG 4F9
[19] = biological target: T1, human TPBG (full length, on cells); test: FACS, HEK293 clone 293F-hTPBG 5H6
[20] = biological target: T1, human TPBG (full length, on cells); test: FACS, HEK293 clone 293F-hTPBG 5C12
[21] = biological target: T1, human TPBG (full length, on cells); test: FACS, HEK293 clone 293F-hTPBG 4H12
[22] = biological target: T1, human TPBG (full length, on cells); test: FACS, HEK293 clone 293F-hTPBG 4G6
[23] = biological target: T1, human TPBG (full length, on cells); test: FACS, HEK293 clone 293F-hTPBG 4A9
[24] = biological target: T1, human TPBG (full length, on cells); test: FACS, HEK293 clone 293F-hTPBG 5A9
[25] = biological target: T1, human TPBG (full length, on cells); test: cell-based or functional assay
human TPBG-hFc [26] = biological target: T3, human TPBG-hFc; test: ELISA, coated human TPBG-hFc 1.0 ug/mL; control IgG 0.0002 nM
human TPBG-hFc [27] = biological target: T3, human TPBG-hFc; test: ELISA, coated human TPBG-hFc 1.0 ug/mL; control IgG 0.02 nM
human TPBG-hFc [28] = biological target: T3, human TPBG-hFc; test: ELISA, coated human TPBG-hFc 1.0 ug/mL; control IgG 0.2 nM
human TPBG-hFc [29] = biological target: T3, human TPBG-hFc; test: ELISA, coated human TPBG-hFc 1.0 ug/mL; control IgG 20 nM
human TPBG-hFc [30] = biological target: T3, human TPBG-hFc; test: ELISA, coated human TPBG-hFc 1.0 ug/mL; control IgG 2 nM
human TPBG-hFc [31] = biological target: T3, human TPBG-hFc; test: ELISA, coated human TPBG-hFc 1.0 ug/mL; control IgG 200 nM
human TPBG-hFc [32] = biological target: T3, human TPBG-hFc; test: ELISA, coated human TPBG-hFc 1.0 ug/mL; control IgG 0.002 nM
[33] = biological target: T1, human TPBG (full length, on cells); test: cell-based or functional assay; remark: listed apart in the source
[34] = biological target: T1, human TPBG (full length, on cells); test: cell-based or functional assay; remark: listed apart in the source
[35] = biological target: T1, human TPBG (full length, on cells); test: cell-based or functional assay; remark: listed apart in the source

MFI [2] [MFI] | MFI [3] [MFI] | MFI [4] [MFI] | MFI [5] [MFI] | MFI [6] [MFI] | MFI [7] [MFI] | MFI [8] [MFI] | MFI [9] [MFI] | MFI [10] [MFI] | MFI [11] [MFI] | MFI [12] [MFI] | MFI [13] [MFI] | MFI [14] [MFI] | MFI [15] [MFI] | MFI [16] [MFI] | MFI [17] [MFI] | MFI [18] [MFI] | MFI [19] [MFI] | MFI [20] [MFI] | Molecule | IC50 of cytotoxicity on TPBG-positive NCI-H1299 cells (CellTiter-Glo) [35] [nM] | also measured
135 | 27.2 | 172 | 145 | 131 | 11.3 | 13.2 | 70.6 | 126 | 168 | 798 | 280 | 166 | 198 | 33.4 | 91.8 | 47.7 | 36.4 | 75.4 | commercial available TPBG antibody (purchased from Sigma, Lot NO: SAB1404485) |  | MFI [1]: 216 MFI; percentage of TPBG-positive cells [1]: 98.5%; MFI [21]: 9.5 MFI; MFI [22]: 31.8 MFI; MFI [23]: 204 MFI; MFI [24]: 53.2 MFI
 |  |  |  |  |  |  |  |  |  |  |  |  |  |  |  |  |  |  | Control hIgG-MMAF (antibody) |  | IC50 of cytotoxicity on TPBG-positive NCI-H1299 cells (CellTiter-Glo) [25]: > 100 nM
2.38 | 3.2 | 5.6 | 5.2 | 4 | 4.1 | 2.6 | 3 | 6.3 | 6 | 3.24 | 5.6 | 4.6 | 2.66 | 3.1 | 4.8 | 3.9 | 3 | 3.7 | mouse IgG control (antibody) |  | OD450nm (human TPBG-hFc [26]): 0.11 OD450nm; OD450nm (human TPBG-hFc [27]): 0.1 OD450nm; OD450nm (human TPBG-hFc [28]): 0.11 OD450nm; OD450nm (human TPBG-hFc [29]): 0.11 OD450nm; OD450nm (human TPBG-hFc [30]): 0.1 OD450nm; MFI [21]: 4 MFI; OD450nm (human TPBG-hFc [31]): 0.24 OD450nm; MFI [22]: 3.1 MFI; OD450nm (human TPBG-hFc [32]): 0.1 OD450nm; MFI [23]: 6.3 MFI; MFI [24]: 5 MFI
 |  |  |  |  |  |  |  |  |  |  |  |  |  |  |  |  |  |  | Chimeric Antibody 12B12-MMAF (antibody, human IgG1, DAR 3, V domains shown, MC-MMAF on cysteines after TCEP reduction, sites not stated) VH: DVQLVESGGGLVQPGGSRKLSCAASGFTFSNFGMHWVRQAPEKGLEWVAYISSGSTSFYYADTVKGRFTISRDNPKNTLFLQMTSLRSEDTAMYYCSRTNSLLRGFFDAWGAGTTVTVSS VL: DIVLTQSPASLAVSLGQRATISCRASQSVSSSSYTYLHWYQQKPGQPPKLLIKSASNLESGVPARFSGTGSGTDFTLNIHPVEEEDTATYYCQHSWEIPLTFGAGTKLELK | 0.13 | IC50 of cytotoxicity on TPBG-positive NCI-H1299 cells (CellTiter-Glo) [33]: 0.04 nM; IC50 of cytotoxicity on TPBG-positive NCI-H1568 cells (CellTiter-Glo) [33]: 0.025 nM; IC50 of cytotoxicity on recombinant 293-hTPBG cells (CellTiter-Glo) [34]: 0.001 nM
 |  |  |  |  |  |  |  |  |  |  |  |  |  |  |  |  |  |  | Chimeric Antibody 36A10-MMAF (antibody, human IgG1, DAR 3, V domains shown, MC-MMAF on cysteines after TCEP reduction, sites not stated) VH: DVQLQESGPGMVKPSQSLSLTCTVTGYSITSGYDWHWIRHFPGNKLEWMGYISYSGNTNYNPSLKSRISITHNTSKNHFFLRLNSVTTEDTATYYCARGYGNWDAMDYWGQGTSVTVSS VL: DIVMTQSQKFMSTSVGDRVSVTCKASQIVDTNVAWYQQKPGQSPKALISSASYRYSGVPDRFTGSGSGTDFTLTISNVQSEDLAEYFCQQYNSYPLTFGAGTKLELT | 0.7 | 
 |  |  |  |  |  |  |  |  |  |  |  |  |  |  |  |  |  |  | Chimeric Antibody 28D4-MMAF (antibody, human IgG1, DAR 3, V domains shown, MC-MMAF on cysteines after TCEP reduction, sites not stated) VH: DVQLVESGGGLVRPGGSLKLSCAASGFTFSNYVMSWARQSPEKRLEWVAEISTGGSHTYYSDTVTGRFTISRDNAKKALYLEMSSLRSEDTAIYYCIMFYYGSSYSMDYWGQGTSVTVSS VL: DIQMTQSTSSLSASLGDRITISCRASQDIRNYLNWYQQKPDGTVKLLIYHTSRLHSGVPSRFSGSGSGTDYSLTISNLEQEDIATYFCQQGDTLPLTFGAGTRLELK | 0.21 | IC50 of cytotoxicity on TPBG-positive NCI-H1299 cells (CellTiter-Glo) [33]: 0.132 nM; IC50 of cytotoxicity on TPBG-positive NCI-H1568 cells (CellTiter-Glo) [33]: 0.066 nM; IC50 of cytotoxicity on recombinant 293-hTPBG cells (CellTiter-Glo) [34]: 0.024 nM

Source: patent publication US20210198377A1 (XDCEXPLORER SHANGHAI, published 2021)
